Experimental data reported in the Human Domainome abundance scans (Beltran et al. 2025).
± gives the uncertainty stated by the source.

B1: GA-binding protein alpha chain, residues 172 to 250; numbered along this chain, Q06546 (parent)
chain: GYRKEQERLGIPYDPIQWSTDQVLHWVVWVMKEFSMTDIDLTTLNISGRELCSLNQEDFFQRVPRGEILWSHLELLRKY

Variants of: B1
Assay: abundance fitness (aPCA) (normalised: wild type 0, dead -1); higher = more abundant; growth selection in yeast, the domain comes from the species named
Details: Homo sapiens

Variant | abundance fitness
GYRKEQERLGISYDPIQWSTDQVLHWVVWVMKEFSMTDIDLTTLNISGRELCSLNQEDFFQRVPRGEILWSHLELLRKY [P12S] | -0.229 ± 0.036
GYRKEQERLGIPYAPIQWSTDQVLHWVVWVMKEFSMTDIDLTTLNISGRELCSLNQEDFFQRVPRGEILWSHLELLRKY [D14A] | -0.369 ± 0.043
GYRKEQERLGIPYIPIQWSTDQVLHWVVWVMKEFSMTDIDLTTLNISGRELCSLNQEDFFQRVPRGEILWSHLELLRKY [D14I] | -0.94 ± 0.15
GYRKEQERLGIPYRPIQWSTDQVLHWVVWVMKEFSMTDIDLTTLNISGRELCSLNQEDFFQRVPRGEILWSHLELLRKY [D14R] | -0.954 ± 0.064
GYRKEQERLGIPYPPIQWSTDQVLHWVVWVMKEFSMTDIDLTTLNISGRELCSLNQEDFFQRVPRGEILWSHLELLRKY [D14P] | -0.596 ± 0.066
GYRKEQERLGIPYHPIQWSTDQVLHWVVWVMKEFSMTDIDLTTLNISGRELCSLNQEDFFQRVPRGEILWSHLELLRKY [D14H] | -0.147 ± 0.078
GYRKEQERLGIPYLPIQWSTDQVLHWVVWVMKEFSMTDIDLTTLNISGRELCSLNQEDFFQRVPRGEILWSHLELLRKY [D14L] | -0.766 ± 0.061
GYRKEQERLGIPYCPIQWSTDQVLHWVVWVMKEFSMTDIDLTTLNISGRELCSLNQEDFFQRVPRGEILWSHLELLRKY [D14C] | -0.393 ± 0.048
GYRKEQERLGIPYKPIQWSTDQVLHWVVWVMKEFSMTDIDLTTLNISGRELCSLNQEDFFQRVPRGEILWSHLELLRKY [D14K] | -0.793 ± 0.23
GYRKEQERLGIPYGPIQWSTDQVLHWVVWVMKEFSMTDIDLTTLNISGRELCSLNQEDFFQRVPRGEILWSHLELLRKY [D14G] | -0.805 ± 0.049
GYRKEQERLGIPYMPIQWSTDQVLHWVVWVMKEFSMTDIDLTTLNISGRELCSLNQEDFFQRVPRGEILWSHLELLRKY [D14M] | -0.784 ± 0.081
GYRKEQERLGIPYSPIQWSTDQVLHWVVWVMKEFSMTDIDLTTLNISGRELCSLNQEDFFQRVPRGEILWSHLELLRKY [D14S] | -0.205 ± 0.036
GYRKEQERLGIPYNPIQWSTDQVLHWVVWVMKEFSMTDIDLTTLNISGRELCSLNQEDFFQRVPRGEILWSHLELLRKY [D14N] | -0.072 ± 0.06
GYRKEQERLGIPYFPIQWSTDQVLHWVVWVMKEFSMTDIDLTTLNISGRELCSLNQEDFFQRVPRGEILWSHLELLRKY [D14F] | -1.01 ± 0.18
GYRKEQERLGIPYQPIQWSTDQVLHWVVWVMKEFSMTDIDLTTLNISGRELCSLNQEDFFQRVPRGEILWSHLELLRKY [D14Q] | -0.344 ± 0.08
GYRKEQERLGIPYEPIQWSTDQVLHWVVWVMKEFSMTDIDLTTLNISGRELCSLNQEDFFQRVPRGEILWSHLELLRKY [D14E] | -0.15 ± 0.049
GYRKEQERLWIPYDPIQWSTDQVLHWVVWVMKEFSMTDIDLTTLNISGRELCSLNQEDFFQRVPRGEILWSHLELLRKY [G10W] | -0.464 ± 0.045
GYRKEQERLVIPYDPIQWSTDQVLHWVVWVMKEFSMTDIDLTTLNISGRELCSLNQEDFFQRVPRGEILWSHLELLRKY [G10V] | -0.383 ± 0.037

Variant | abundance fitness
GYRKEQERLGIPSDPIQWSTDQVLHWVVWVMKEFSMTDIDLTTLNISGRELCSLNQEDFFQRVPRGEILWSHLELLRKY [Y13S] | -0.029 ± 0.039
GYRKEQERLGIPFDPIQWSTDQVLHWVVWVMKEFSMTDIDLTTLNISGRELCSLNQEDFFQRVPRGEILWSHLELLRKY [Y13F] | 0.014 ± 0.03
GYRKEQERLGIPNDPIQWSTDQVLHWVVWVMKEFSMTDIDLTTLNISGRELCSLNQEDFFQRVPRGEILWSHLELLRKY [Y13N] | 0.006 ± 0.11
GYRKEQERLGIPGDPIQWSTDQVLHWVVWVMKEFSMTDIDLTTLNISGRELCSLNQEDFFQRVPRGEILWSHLELLRKY [Y13G] | -0.119 ± 0.028
GYRKEQERLGIPVDPIQWSTDQVLHWVVWVMKEFSMTDIDLTTLNISGRELCSLNQEDFFQRVPRGEILWSHLELLRKY [Y13V] | -0.109 ± 0.032
GYRKEQERLGIPDDPIQWSTDQVLHWVVWVMKEFSMTDIDLTTLNISGRELCSLNQEDFFQRVPRGEILWSHLELLRKY [Y13D] | -0.064 ± 0.052
GYRKEQERLGIPKDPIQWSTDQVLHWVVWVMKEFSMTDIDLTTLNISGRELCSLNQEDFFQRVPRGEILWSHLELLRKY [Y13K] | -0.024 ± 0.063
GYRKEQERLGIPTDPIQWSTDQVLHWVVWVMKEFSMTDIDLTTLNISGRELCSLNQEDFFQRVPRGEILWSHLELLRKY [Y13T] | -0.152 ± 0.087
GYRKEQERLGIPADPIQWSTDQVLHWVVWVMKEFSMTDIDLTTLNISGRELCSLNQEDFFQRVPRGEILWSHLELLRKY [Y13A] | -0.085 ± 0.039
GYRKEQERLGIPHDPIQWSTDQVLHWVVWVMKEFSMTDIDLTTLNISGRELCSLNQEDFFQRVPRGEILWSHLELLRKY [Y13H] | -0.114 ± 0.088
GYRKEQERLGIPCDPIQWSTDQVLHWVVWVMKEFSMTDIDLTTLNISGRELCSLNQEDFFQRVPRGEILWSHLELLRKY [Y13C] | -0.138 ± 0.076
GYRKEQERLGIPLDPIQWSTDQVLHWVVWVMKEFSMTDIDLTTLNISGRELCSLNQEDFFQRVPRGEILWSHLELLRKY [Y13L] | -0.014 ± 0.036
GYRKEQERLGIPQDPIQWSTDQVLHWVVWVMKEFSMTDIDLTTLNISGRELCSLNQEDFFQRVPRGEILWSHLELLRKY [Y13Q] | -0.048 ± 0.06
GYRKEQERLGIPIDPIQWSTDQVLHWVVWVMKEFSMTDIDLTTLNISGRELCSLNQEDFFQRVPRGEILWSHLELLRKY [Y13I] | -0.022 ± 0.074
GYRKEQERLGIPEDPIQWSTDQVLHWVVWVMKEFSMTDIDLTTLNISGRELCSLNQEDFFQRVPRGEILWSHLELLRKY [Y13E] | 0 ± 0.048
GYRKEQERLGIPMDPIQWSTDQVLHWVVWVMKEFSMTDIDLTTLNISGRELCSLNQEDFFQRVPRGEILWSHLELLRKY [Y13M] | 0.012 ± 0.062
GYRKEQERLGIPPDPIQWSTDQVLHWVVWVMKEFSMTDIDLTTLNISGRELCSLNQEDFFQRVPRGEILWSHLELLRKY [Y13P] | -0.058 ± 0.049
